Experimental findings from the DeepSol protein solubility set are described below.

This series can be described thus: soluble on expression in E. coli; label from the status in PepcDB or PDB records.
As to “MLGDGLSVALAGLLHDVGKLYSRARWGERDDQVPDRTHTAYTAHFVREHAGLFRGAGLDPDWLARTASRHHEGWRDRPQYRPETPEEWCVALADTYASKEREEGEGGGSPPEVPLSPPFRRLLLGGEEGREGGYSPVGAGGRVGLEAGGLYPEERPNVSKDVYKRLLERLEGRLEEMARFSLGKEALVLNLALALQETLSLVPSDTQSEPDVSLYDHLRLTAAIAHALWLFHGGSPSAQNLRQDGEKFLLVVGDMGGIQGHIYRIAGAEAGVGGIAKRLRARSLEVSLAAEAMALGLLWRLGLTSLNRILGAGGKFYLLLPNTEEARAALEGTREAWGRWALKRGGSLVPHLAWVAFRGQDFRDFAALLKRLHEALAREKLRPFAFLASTGGVLGAPLRPCAACGLEPARRDEPGSLCPDCEREAALGARLPRSDRVGFFLEEAPRPYLDFPGLKVGLGGPLEGAFHLFRARLDFAPWPDPSEAKPLLGHLPRVEHALKAKGWSLEAYRAWAEEEGLLEDEEPHPEKVLTFAELAALSEGAPYLGALMLDADRMGEAFATGFRREGRDLATPSRLAALSRTLEVFFTTEVLTLLEEPRRYRERLGWDDLEAQRKEARYPLLYSVYSGGDDLFLLGPWDALLDFALDLERLYRLFTRHPRLTLSGGFLLVPPSLPVPELARLLGEAEKRAKAEGRERLFLFGQAVPWETLRGLRAWAEGLRQDLRAERVSRAQVYRWLLLWRRFSPLEDPGERMRYKPLLAYALRRVRERDEEAWKRYLKLLDHQDPAWAYLPVWVQWALYRERRV”, the “soluble on expression in E. coli” value is “soluble”. Take “SMEEKLENEPDFQYIPEKAPLDSVHQDDHSLRESMIQLAEGLITGTVLTQFDQLYRKKPGMTMSCAKLPQNISKNRYRDISPYDATRVILKGNEDYINANYINMEIPSSSIINQYIACQGPLPHTCTDFWQMTWEQGSSMVVMLTTQVERGRVKCHQYWPEPTGSSSYGCYQVTCHSEEGNTAYIFRKMTLFNQEKNESRPLTQIQYIAWPDHGVPDDSSDFLDFVCHVRNKRAGKEEPVVVHCSAGIGRTGVLITMETAMCLIECNQPVYPLDIVRTMRDQRAMMIQTPSQYRFVCEAILKVYEEGFVKPLTTSTNKLT”: the “soluble on expression in E. coli” value is “soluble”. As for “MSLEVKLNENERIDDLQCKGLKIIQKKAGFCFGLDAVLLANFADIKKGDTVIDLGTGTGIIAILIAGKTEAKSIIGLEIQEEMAEMAQRSVKLNNLEDRVKIVCGDIKNSVEMFGASKFDVVVTNPPYMNQGGGLLNISDTKAISRHEIKCTLEDVIKASSKLLVPGGQFAMVHRPDRLVDIIWLMRKYSIEPKYLQFVHPYPRKKANLILIKGARQGRVQLKMLEPLYVYDENGNYSKEIDNIYGREVRNEGHHHHHH”, the entry is “soluble”.

For “MEKRGVIDTWIDKHRSIYTAATRHAFVVSIRDGSVDLSSFRTWLGQDYLFVRRFVPFVASVLIRACKDSGESSDMEVVLGGIASLNDEIEWFKREGSKWDVDFSTVVPQRANQEYGRFLEDLMSSEVKYPVIMTAFWAIEAVYQESFAHCLEDGNKTPVELTGACHRWGNDGFKQYCSSVKNIAERCLENASGEVLGEAEDVLVRVLELEVAFWEMSRGGQ”, the “soluble on expression in E. coli” value is “soluble”.

Turning to “FISDLHLEAERPDITRAFLSFLDERARRAEALYILGDFFEAWIGDDGMDAFQRSIAQSLRQVADGGTRIYLMHGNRDFLIGKAFCREAGCTLLPDPSVIDLYGEPVLLMHGDSLCTRDEAYMRLRRWLRNPLTLWVLRHLPLATRHKLARKLRKESRAQTRMKAVDIIDVTPEEVPRVMRGHGVRTLIHGHTHRPAEHPLDIDGQPARRIVLGDWDRQGWALEIDANGHR”, the “soluble on expression in E. coli” value is “not soluble”. Under “LKRLFFTVSLAVVLSACQALPLNQSQAIVHDEYVSSGDLLPIEAITTIDGEELDLQQLGKRKLVILFATWCHDSNRLLKALNSSPLLEMEGIEIVAIAREEDLETVTAWRDKRGIKVALAVDNDRSIYRRFASGGIPRLITIGENNKIIKMNLAEGEQQLAKIV” stands “not soluble”. Under “MSLNGTFEATKSCPAYLSKNRKSNPDNLMVEPNQKYQLKEINKTKPDWLRIQFSDHQPNLRWVSVDCGVIEYTERPKASCDLSPGMADSYVLALSSQPGFCETYGYEIGKPECLKLTKTVYQANHLILHGLWPNQEACGHNYGYCGISPRTNHCDYSPLDLSSDVAQNLKKLMPSYNYGSCLERHEWNKHGSCQDLSTDGYFSLAMRLTTEVNNTEFGQYLTAHRGDTVKLTTLRELIKRSFGENNTGKVTLSCKNGILVDIYVQLPALIPFKESLESLVDKASEGHHHHHH” stands “not soluble”.
